Experimental data taken from paper PMC2064808.

Biological target: GST-β3 integrin cytodomain (human) (UniProt P05106)
Test: ELISA

Sequence of UniProt P05106 (P05106 27-788): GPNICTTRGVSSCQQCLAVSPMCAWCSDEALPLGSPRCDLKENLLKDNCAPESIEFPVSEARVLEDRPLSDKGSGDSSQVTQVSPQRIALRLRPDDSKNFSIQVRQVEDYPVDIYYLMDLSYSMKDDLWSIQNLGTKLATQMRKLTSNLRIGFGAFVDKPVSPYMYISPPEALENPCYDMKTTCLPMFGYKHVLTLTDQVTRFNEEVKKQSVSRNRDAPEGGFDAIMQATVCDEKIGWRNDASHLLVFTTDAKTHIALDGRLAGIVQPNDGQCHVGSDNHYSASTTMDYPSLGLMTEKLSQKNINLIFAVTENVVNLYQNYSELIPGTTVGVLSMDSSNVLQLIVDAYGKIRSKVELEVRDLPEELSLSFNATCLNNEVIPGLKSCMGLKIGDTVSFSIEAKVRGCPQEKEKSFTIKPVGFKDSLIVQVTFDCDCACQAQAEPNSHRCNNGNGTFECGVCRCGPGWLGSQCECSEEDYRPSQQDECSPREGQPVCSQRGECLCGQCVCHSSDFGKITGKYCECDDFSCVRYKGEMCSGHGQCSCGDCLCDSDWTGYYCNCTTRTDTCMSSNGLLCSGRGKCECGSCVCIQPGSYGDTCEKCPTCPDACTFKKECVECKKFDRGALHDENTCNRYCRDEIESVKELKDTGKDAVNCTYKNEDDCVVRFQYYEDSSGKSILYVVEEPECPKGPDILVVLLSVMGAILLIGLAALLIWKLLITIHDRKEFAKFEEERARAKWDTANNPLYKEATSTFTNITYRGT

fold reduction of affinity against untreated PKD1: 5 fold
B1: His-PKD1 treated with alkaline phosphatase (enzyme)
chain: MSVPPLLRPPSPLLPAAAAVAAAAAALVPGSGPAPFPAPGAAPAGGISFHLQIGLSREPVLLLQDSSGDYSLAHVREMACSIVDQKFPECGFYGLYDKILLFRHDPASDNILQLVKIASDIQEGDLIEVVLSASATFEDFQIRPHALFVHSYRAPAFCDHCGEMLWGLVRQGLKCEGCGLNYHKRCAFKIPNNCSGVRRRRLSNVSLTGLGTVRTASAEFSTSVPDEPLLSPVSPGFEQKSPSESFIGREKRSNSQSYIGRPIQLDKLLMSKVKVPHTFVIHSYTRPTVCQFCKKLLKGLFRQGLQCKDCRFNCHKRCAPKVPNNCLGEVTINGELLSPGAESDVVMEEGSDDNDSERNSGLMDDMDEAMVQDTEMALAEGQSGGAEMQDPDADQEDSNRTISPSTSNNIPLMRVVQSVKHTKRRSSTVMKEGWMVHYTSKDTLRKRHYWRLDSKCITLFQNDTGSRYYKEIPLSEILCLEPAKPSALTPVGATPHCFEITTANVVYYVGENVVNPSSSPPNNSVLPSGIGPDVARMWEVAIQHALMPVIPKGSSVGSGSNSHKDISVSISVSNCQIQENVDISTVYQIFPDEVLGSGQFGIVYGGKHRKTGRDVAIKIIDKLRFPTKQESQLRNEVAILQNLHHPGVVNLECMFETPERVFVVMEKLHGDMLEMILSSEKGRLPEHITKFLITQILVALRHLHFKNIVHCDLKPENVLLASADPFPQVKLCDFGFARIIGEKSFRRSVVGTPAYLAPEVLRNKGYNRSLDMWSVGVIIYVSLSGTFPFNEDEDIHDQIQNAAFMYPPNPWKEISHEAIDLINNLLQVKMRKRYSVDKTLSHPWLQDYQTWLDLRELECRIGERYITHESDDSRWEQYAGEQGLQYPAHLISLSASHSDSPEAEEREMKALSERVSIL
modifications: ~80% dephosphorylation of the kinase by alkaline phosphatase
